Test results: article PMC6557901, “Rif1 S-acylation mediates DNA double-strand break repair at the inner nuclear membrane”

Target: T1, Rif1 NTD (100-1322) wild-type (Saccharomyces cerevisiae, UniProt P29539 100-1322)
T1 sequence: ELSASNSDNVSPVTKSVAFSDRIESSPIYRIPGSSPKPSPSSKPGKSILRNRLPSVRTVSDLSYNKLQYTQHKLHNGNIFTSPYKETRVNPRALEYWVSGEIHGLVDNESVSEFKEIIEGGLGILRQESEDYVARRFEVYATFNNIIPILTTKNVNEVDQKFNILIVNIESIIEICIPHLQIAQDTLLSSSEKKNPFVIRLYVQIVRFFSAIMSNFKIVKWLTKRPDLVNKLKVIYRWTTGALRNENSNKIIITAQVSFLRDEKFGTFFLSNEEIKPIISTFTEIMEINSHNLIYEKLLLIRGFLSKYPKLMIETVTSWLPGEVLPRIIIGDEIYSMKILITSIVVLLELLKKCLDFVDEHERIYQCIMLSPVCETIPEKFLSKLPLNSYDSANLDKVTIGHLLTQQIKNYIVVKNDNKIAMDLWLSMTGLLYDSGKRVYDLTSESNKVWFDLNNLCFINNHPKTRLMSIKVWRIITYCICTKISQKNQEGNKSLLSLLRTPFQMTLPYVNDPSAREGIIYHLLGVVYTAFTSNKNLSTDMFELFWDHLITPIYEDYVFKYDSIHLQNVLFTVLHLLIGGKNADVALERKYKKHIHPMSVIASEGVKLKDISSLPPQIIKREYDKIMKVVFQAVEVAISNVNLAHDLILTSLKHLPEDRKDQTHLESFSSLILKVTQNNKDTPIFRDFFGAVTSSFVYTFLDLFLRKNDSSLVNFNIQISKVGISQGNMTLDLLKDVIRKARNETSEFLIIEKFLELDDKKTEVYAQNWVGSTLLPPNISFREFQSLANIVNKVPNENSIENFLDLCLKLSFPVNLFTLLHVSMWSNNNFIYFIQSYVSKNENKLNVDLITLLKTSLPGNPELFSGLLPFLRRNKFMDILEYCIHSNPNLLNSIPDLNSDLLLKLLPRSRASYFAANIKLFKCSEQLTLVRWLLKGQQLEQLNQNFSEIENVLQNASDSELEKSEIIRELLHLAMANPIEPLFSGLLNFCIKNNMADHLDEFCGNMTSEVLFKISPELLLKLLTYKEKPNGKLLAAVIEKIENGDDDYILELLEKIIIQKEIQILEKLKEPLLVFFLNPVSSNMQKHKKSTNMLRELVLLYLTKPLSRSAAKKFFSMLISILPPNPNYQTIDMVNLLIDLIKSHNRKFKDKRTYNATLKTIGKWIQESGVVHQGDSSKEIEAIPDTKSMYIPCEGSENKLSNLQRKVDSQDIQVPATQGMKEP
Experiment: EMSA; protein 10-160 nM, DNA 1 nM; 20 mM Tris-HCl pH 8.0, 100 mM NaCl, 2.5 mM MgCl2, 10 mM CaCl2, 0.1 mg/ml BSA, 1 mM TCEP, 30 min at 20 °C; 1.2% agarose gel, 0.5x TBE, 4 °C
Settings: protein: recombinant; tags: N-terminal Strep(II); label: 5'-32P on EMSA1; blunt

B1: 30 bp dsDNA (EMSA1/EMSA2) (dsDNA)
DNA 1: TAGCAAGGCACTGGTAGAATTCGGCAGCGT
DNA 2: ACGCTGCCGAATTCTACCAGTGCCTTGCTA
binding result: binds
